For one molecule, Kd results are on record in PMC10349056, “The combined action of the intracellular regions regulates FGFR2 kinase activity” (Communications Biology, 2023).

Common to all, as to assay: MST; JM labelled with Atto 488, serial dilutions of KD titrated, 25 °C; 20 mM HEPES, 150 mM NaCl, 1 mM TCEP, 0.01% Tween 20, pH 7.5; the text calls the constant of KD^pY1 apparent (Kd,app)
Common to all, as to conditions: both partners purified

The target of assay [1] is T1, FGFR2 kinase domain K518I (catalytically inactive, non-phosphorylatable) (UniProt P21802-3 465-764, K518I).
T1 construct: FGFR2 (IIIb isoform) kinase domain, residues 465-764; numbers count on: FGFR2IIIb (C1 isoform, 822 residues); also called KD^K518I; source: E. coli BL21(DE3), purified (Talon, Superdex 75)
T1 sequence (P21802 464-763 K517I): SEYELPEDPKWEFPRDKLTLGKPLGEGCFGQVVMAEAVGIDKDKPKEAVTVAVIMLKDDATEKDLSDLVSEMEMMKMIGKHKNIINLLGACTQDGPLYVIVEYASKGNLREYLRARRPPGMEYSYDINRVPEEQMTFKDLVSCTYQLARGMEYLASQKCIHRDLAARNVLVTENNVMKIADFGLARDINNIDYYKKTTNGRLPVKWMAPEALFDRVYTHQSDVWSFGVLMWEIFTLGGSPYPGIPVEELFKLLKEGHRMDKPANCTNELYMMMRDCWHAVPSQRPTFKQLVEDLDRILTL

Assay [2] deals with T2, FGFR2 kinase domain, phosphorylation state pY5 (UniProt P21802-3 465-764, Y734F (worked out from the printed order of phosphorylation), phosphotyrosine at 657, 587, 467, 589 and 658).
T2 construct: FGFR2 (IIIb isoform) kinase domain, residues 465-764; numbers count on: FGFR2IIIb (C1 isoform, 822 residues); also called KD^pY5; source: E. coli BL21(DE3), purified (Talon, Superdex 75)
T2 sequence (P21802 464-763 Y733F): as the sequence (P21802 464-763 K517I) above, with I54K, Y270F counted along it

The target in assay [3] is T3, FGFR2 kinase domain, phosphorylation state pY2 (UniProt P21802-3 465-764, Y467F (worked out from the printed order of phosphorylation) | Y589F (worked …, phosphotyrosine at 657 and 587)).
T3 construct: FGFR2 (IIIb isoform) kinase domain, residues 465-764; numbers count on: FGFR2IIIb (C1 isoform, 822 residues); also called KD^pY2; source: E. coli BL21(DE3), purified (Talon, Superdex 75)
T3 sequence (P21802 464-763 Y466F/Y588F/Y657F/Y733F): as the sequence (P21802 464-763 K517I) above, with Y3F, I54K, Y125F, Y194F, Y270F counted along it

The target of assay [4] is T4, FGFR2 kinase domain, phosphorylation state pY4 (UniProt P21802-3 465-764, Y658F (worked out from the printed order of phosphorylation) | Y734F (worked …, phosphotyrosine at 657, 587, 467 and 589)).
T4 construct: FGFR2 (IIIb isoform) kinase domain, residues 465-764; numbers count on: FGFR2IIIb (C1 isoform, 822 residues); also called KD^pY4; source: E. coli BL21(DE3), purified (Talon, Superdex 75)
T4 sequence (P21802 464-763 Y657F/Y733F): as the sequence (P21802 464-763 K517I) above, with I54K, Y194F, Y270F counted along it

Where no end group is shown, it is not given here.

B1: FGFR2 juxtamembrane region (407-462), labelled with Atto 488 (peptide, UniProt P21802-3 407-462, looked up)
chain: KPDFSSQPAVHKLTKRIPLRRQVTVSAESSSSMNSNTPLVRITTRLSSTADTPMLA
modifications: also: labelled with Atto 488
notes: FGFR2 (IIIb isoform) juxtamembrane region, residues 407-462; numbers count on: FGFR2IIIb (C1 isoform, 822 residues); also called JM; 407Juxtamembrane region462; source: synthetic peptide, bought: Genscript
As for B1, the Kd in assay [1] was found to be 13.4 ± 0.994 µM; in assay [2], 22.5 ± 1.8 µM; in assay [3], 6.98 ± 0.877 µM; in assay [4], 10.2 ± 1.33 µM.
